Drawing on US7576071B2, “Antithrombotic compound” (sanofi-aventis, priority 2004, dated 2009), this text covers Anti-Xa activity for one substance.

The subject of the data set is Bovine factor Xa. Put plainly: Determination of anti-factor Xa activity in buffer (microtiter plate method, AT-III mediated). The class given is biochemical. The following applies: Kabi buffer, human AT-III. The text has this:
II. Determination of Anti-Factor Xa Activity in Buffer
(Microtiter Plate Method)
Anticoagulants can inhibit Xa directly or, like heparin, by potentiating the inhibitory activity of AT-III. Anti-Xa activity can be assessed by determination of the rate of hydrolysis of the chromogenic substrate S-2222 in the presence of AT-III. This assay is used to determine anti-Xa activity of heparinoid preparations in Kabi buffer.
Test medium: Kabi buffer.
Ref. compound: International standard heparin (11.4 anti-Xa U/mg).
Composition of the buffer: NaCl 10.17 g (174 mmol); edetate disodium dihydrate 3.26 g (9.6 mmol); tromethamine (Tris) 6.11 g (50.4 mmol); made up to 1 L with ultrapure H2O *. The pH of the solution is adjusted to 7.4 with hydrochloric acid (0.10 mol/L)
Bovine factor Xa (Kabi Diagnostica, Stockholm, Sweden) is dissolved in Kabi buffer to give a solution containing 1.5 U/mL (0.75 nKat/mL). • 3. S-2222 solution
S-2222 (Kabi Diagnostica) is dissolved in ultrapure H2O to give a solution containing 0.375 mg/mL (0.5 mmol/L). • 4. AT-III solution
Human AT-III (Kabi Diagnostica) is dissolved in Kabi buffer to give a solution containing 0.25 U/mL. A fresh solution has to be prepared daily. • 5. Standard solution of the calibration sample
Standard heparin is dissolved in Kabi buffer to give a standard solution containing approx. 0.25 anti-Xa U/mL.
Each preparation is dissolved in ultrapure H2O and diluted with Kabi buffer to the required concentrations in the range of 0.02-0.2 anti-Xa U/mL
Each test sample (0.05 mL) is pipetted into a well of a microtiter plate at RT. AT-III solution (0.05 mL) is added to each sample and the plate is shaken using a Vari-shaker.
An aliquot of Xa solution (0.05 mL) is pipetted into each well 10 min following addition of AT-III solution and the plate is shaken again. Exactly 2 min following addition of Xa solution, 0.1 mL S-2222 solution is pipetted into each well and the plate is shaken again. For all additions a 12-channel pipette is used.
The remaining amount of Xa catalyses the hydrolysis of S-2222, the rate of which is measured photometrically following incubation periods of 2 and 22 min respectively at RT. The absorbance of each sample is measured at 405 nm using a Reader Microelisa, model 310C (Organon Teknika, Oss, The Netherlands) and the increase in absorbance (ΔOD) is calculated. Each test sample is determined in duplicate. With every 10 samples, a blank (0.05 mL Kabi buffer) is included.
From an aliquot of the standard solution of the calibration sample a range of dilutions is made (dilution factor 1,3 for heparin samples). The resulting standard samples (approx. 15 samples) should contain between 0.01-0.25 anti-Xa U/mL. […]
For each sample the mean anti-Xa activity in U/mL is determined using the calibration curve. […]

Regarding “Methyl O-2,3-di-O-methyl-4-O-<<12-N-<N-(3-keto-benzenesulfonyl)-4-O-{4-(4-piperidinyl)-butyl}-L-tyrosine>-12-aza-3,6,9-trioxa-dodecyl>>-6-O-sulfo-alpha-D-glucopyranosyl-(1->4)-O-2,3-di-O-methyl-beta-D-glucopyranuronosyl-(1->4)-O-2,3,6-tri-O-sulfo-alpha-D-glucopyranosyl-(1->4)-O-2,3-di-O-methyl-alpha-L-idopyranuronosyl-(1>4)-3-O-methyl-2,6-di-O-sulfo-alpha-D-glucopyranoside octakis sodium salt [XIV]”, the Anti-Xa activity is, setting by setting: (substrate S-2222, calibrated against standard heparin) 735 ± 107 U/mg; (substrate S-2222, per nmol (from U/mg and Mw)) 1.68 U/nmol.
